Data taken from PMC10267100 (Communications Biology, 2023).
Square brackets hold non-standard residues; d marks the D form. Ends that are not written are not given here. pY = N[C@@H](Cc1ccc(OP(=O)(O)O)cc1)C(=O)O

B4: JAK2 pYpY activation loop peptide (peptide)
peptide: VLPQDKE[pY][pY]KVKEPGE
notes: printed as VLPQDKE[pY][pY]KVKEPGE; In the crystal with PTP1B D181A/Q262A the peptide is seen as the dephosphorylated product; source: synthetic peptide

Key:
[1] = biological target: T1, PTP1B (Homo sapiens, UniProt P18031); experiment: 1H NMR dephosphorylation of activation loop peptides; format: biochemical; conditions: bisphosphorylated peptide as substrate, WT PTP1B, Fig. 6c
T1 construct: human PTP1B phosphatase domain (residues 2–321) with a GST tag; GST (cleaved yes); made in house; host or cells: E. coli BL21 (DE3)
T1 sequence (P18031 2-321): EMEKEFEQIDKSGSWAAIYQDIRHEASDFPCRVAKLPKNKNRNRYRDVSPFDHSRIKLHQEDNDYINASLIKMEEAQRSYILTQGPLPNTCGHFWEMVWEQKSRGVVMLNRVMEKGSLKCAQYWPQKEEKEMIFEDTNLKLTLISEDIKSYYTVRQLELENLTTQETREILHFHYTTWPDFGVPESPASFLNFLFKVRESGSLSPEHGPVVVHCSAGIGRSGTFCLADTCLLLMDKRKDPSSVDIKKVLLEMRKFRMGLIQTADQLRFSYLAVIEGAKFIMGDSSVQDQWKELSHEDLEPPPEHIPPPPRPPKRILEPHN
Excerpt: A Michaelis-Menten analysis of dephosphorylation of JAK2 and IRK activation loop peptides indicated an enhanced dephosphorylation rate for both peptides when in the bisphosphorylated state (Fig. 6a), consistent with previous data on IRK[7]. […] Using ^1H NMR we then measured the dephosphorylation of individual YpY, pYY and YY peptides over time (Supplementary Fig. S5), and similarly, observed an overall preference for bisphosphorylated peptides, however JAK2 YpY was dephosphorylated at a similar rate as the pYpY peptides, highlighting again the preference for this residue by PTP1B (Fig. 6).
Fig. 6 PTP1B preferentially targets different phosphotyrosines in the JAK2 and IRK activation loops. a Michaelis–Menten analysis of PTP1B-induced dephosphorylation via the malachite green assay. Data are from three independent experiments, error bars are SEM. b Dephosphorylation of mono- and bisphosphorylated peptides over time as measured by 1H NMR to determine reaction rate (shown as s-1). c 1H NMR was used to track the dephosphorylation of JAK2 and IRK bisphosphorylated activation loop peptides over time. […]
(§1) Specifically, we measured the appearance of the individual YpY, pYY and YY products over time (Supplementary Fig. S6). […]
0.5 mg of JAK2 or IRK pYpY, pYY and YpY peptides were dissolved in 500 μl of 20 mM Tris (pH 7.5), 2 mM TCEP, and 100 mM NaCl. […] Data was analyzed using TopSpin v3.2 (Bruker). […]

[2] = system: PTP1B R47A; experiment: 1H NMR dephosphorylation of bisphosphorylated activation loop peptides; format: biochemical, human; conditions: bisphosphorylated peptide as substrate, PTP1B R47A mutant
Excerpt: Fig. 6 PTP1B preferentially targets different phosphotyrosines in the JAK2 and IRK activation loops. a Michaelis–Menten analysis of PTP1B-induced dephosphorylation via the malachite green assay. Data are from three independent experiments, error bars are SEM. b Dephosphorylation of mono- and bisphosphorylated peptides over time as measured by 1H NMR to determine reaction rate (shown as s-1). c 1H NMR was used to track the dephosphorylation of JAK2 and IRK bisphosphorylated activation loop peptides over time. […] Arg47 has an effect on the preference for dephosphorylation of the second phosphotyrosine in JAK2, with loss of selectivity for dephosphorylation of either phosphotyrosine in the R47A PTP1B mutant. […]
as §1
0.5 mg of JAK2 or IRK pYpY, pYY and YpY peptides were dissolved in 500 μl of 20 mM Tris (pH 7.5), 2 mM TCEP, and 100 mM NaCl. […] To start the dephosphorylation reaction, 2 nM PTP1B was added to each sample and multiple 1H NMR spectra were recorded over the course of 1 h. Data was analyzed using TopSpin v3.2 (Bruker). The concentration of each species of ALP (pYpY, pYY, or YpY) in the reaction was calculated by integrating the area under the peak and normalising these values to the starting peptide concentration.

[3] = system: PTP1B; conditions: peptide with Phe in the −1 position; cited from earlier work
[4] = biological target: B4
[5] = biological target: T2, IRK pYpY activation loop peptide; experiment: cell-based or functional assay
T2 peptide: ETD[pY][pY]RKGGKGL

[6] = biological target: B4; experiment: cell-based or functional assay
[7] = biological target: T3, PTP1B phosphatase domain (residues 2-321) C215A/D181A/Q262A triple mutant (human, UniProt P18031 2-321, D181A | C215A | Q262A); experiment: crystal structure; catalytically dead PTP1B D181A/Q262A/C215A co-crystallised with a 2-fold excess of phosphopeptide; substrate-bound; conditions: both partners purified
T3 construct: Protein tyrosine phosphatase 1B, human, phosphatase domain, residues 2-321, D181A/C215A/Q262A; pPROEX vector; no cleavage of the His tag is told; also called D181A/Q262A/C215A; PTP1B D/Q/C; source: E. coli BL21 (DE3), purified (nickel resin, size exclusion)
T3 sequence (looked up): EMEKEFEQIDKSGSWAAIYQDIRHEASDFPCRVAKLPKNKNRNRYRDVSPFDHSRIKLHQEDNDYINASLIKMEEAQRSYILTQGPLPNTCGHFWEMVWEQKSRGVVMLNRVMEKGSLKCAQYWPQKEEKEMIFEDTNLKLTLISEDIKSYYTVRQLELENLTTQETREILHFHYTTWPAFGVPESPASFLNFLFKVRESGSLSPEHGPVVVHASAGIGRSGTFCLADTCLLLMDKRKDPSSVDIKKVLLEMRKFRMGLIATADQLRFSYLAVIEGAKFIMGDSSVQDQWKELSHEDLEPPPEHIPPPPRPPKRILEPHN

[8] = biological target: T4, PTP1B phosphatase domain (residues 2-321) D181A/Q262A (human, UniProt P18031 2-321, D181A | Q262A); experiment: crystal structure; PTP1B D181A/Q262A co-crystallised with a 2-fold excess of bisphosphorylated peptide; the tyrosyl-peptide product and free phosphate are seen in the active site; conditions: both partners purified
T4 construct: Protein tyrosine phosphatase 1B, human, phosphatase domain, residues 2-321, D181A/Q262A; pPROEX vector; no cleavage of the His tag is told; also called PTP1B D181A/Q262A; PTP1B D/Q; source: E. coli BL21 (DE3), purified (nickel resin, size exclusion)
T4 sequence (looked up): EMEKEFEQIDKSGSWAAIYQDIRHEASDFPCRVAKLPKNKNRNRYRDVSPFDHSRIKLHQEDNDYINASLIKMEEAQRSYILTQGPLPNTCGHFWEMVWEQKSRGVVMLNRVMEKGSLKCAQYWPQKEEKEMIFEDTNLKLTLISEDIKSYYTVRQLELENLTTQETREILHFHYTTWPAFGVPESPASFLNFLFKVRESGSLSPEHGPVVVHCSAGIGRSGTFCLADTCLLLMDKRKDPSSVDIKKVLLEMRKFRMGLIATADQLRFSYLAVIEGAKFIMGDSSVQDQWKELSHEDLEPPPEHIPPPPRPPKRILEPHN

VLPQDKE[pY][pY]KVKEPGE [JAK2 pYpY]
rate of dephosphorylation of the second pTyr relative to the first ([1]; 1H NMR tracking of pYY and YpY products): ~ 3 fold
preference for dephosphorylation of the second pTyr over the first [2]: 1.3 fold

ELEFpYMDYE [peptide of PDB 1EEO with Phe in the −1 position, literature PTP1B substrate]
substrate quality for PTP1B [3]: potent PTP1B substrate

ETD[pY][pY]RKGGKGL [IRK pYpY]
preference for dephosphorylation of the first pTyr over the second ([1]; 1H NMR tracking of products): ~ 1.6 fold

B1: PTP1B phosphatase domain (residues 2-321) R47A (enzyme)
chain: EMEKEFEQIDKSGSWAAIYQDIRHEASDFPCRVAKLPKNKNRNRYADVSPFDHSRIKLHQEDNDYINASLIKMEEAQRSYILTQGPLPNTCGHFWEMVWEQKSRGVVMLNRVMEKGSLKCAQYWPQKEEKEMIFEDTNLKLTLISEDIKSYYTVRQLELENLTTQETREILHFHYTTWPDFGVPESPASFLNFLFKVRESGSLSPEHGPVVVHCSAGIGRSGTFCLADTCLLLMDKRKDPSSVDIKKVLLEMRKFRMGLIQTADQLRFSYLAVIEGAKFIMGDSSVQDQWKELSHEDLEPPPEHIPPPPRPPKRILEPHN
preference for dephosphorylation of the second pTyr against the first in the bisphosphorylated peptide, followed by 1H NMR [4]: 1.3 fold

B2: human PTP1B phosphatase domain (residues 2-321), wild type (enzyme, UniProt P18031 2-321, looked up)
chain: EMEKEFEQIDKSGSWAAIYQDIRHEASDFPCRVAKLPKNKNRNRYRDVSPFDHSRIKLHQEDNDYINASLIKMEEAQRSYILTQGPLPNTCGHFWEMVWEQKSRGVVMLNRVMEKGSLKCAQYWPQKEEKEMIFEDTNLKLTLISEDIKSYYTVRQLELENLTTQETREILHFHYTTWPDFGVPESPASFLNFLFKVRESGSLSPEHGPVVVHCSAGIGRSGTFCLADTCLLLMDKRKDPSSVDIKKVLLEMRKFRMGLIQTADQLRFSYLAVIEGAKFIMGDSSVQDQWKELSHEDLEPPPEHIPPPPRPPKRILEPHN
preference for dephosphorylation of the first pTyr against the second in the bisphosphorylated peptide, followed by 1H NMR [5]: ~1.6 fold
rate of dephosphorylation of the second pTyr against the first in the bisphosphorylated peptide, followed by 1H NMR [6]: ~3 fold

B3: TYK2 pYpY activation loop peptide (peptide)
peptide: VPEGHE[pY][pY]RVREDGD
notes: printed as VPEGHE[pY][pY]RVREDGD; In the crystal with PTP1B D181A/Q262A the peptide is seen as the dephosphorylated product; source: synthetic peptide
binding result [7]: binds
binding result [8]: binds

B4
binding result [7]: binds
binding result [8]: binds

B5: JAK3 pYpY activation loop peptide (peptide)
peptide: LLPLDKD[pY][pY]VVREPGQ
notes: printed as LLPLDKD[pY][pY]VVREPGQ; In the crystal with PTP1B D181A/Q262A the peptide is seen as the dephosphorylated product; also called JAK3 peptide; source: synthetic peptide
binding result [8]: binds

VLPQDKE[pY]YKVKEPGE (source: synthetic peptide) [JAK2 pYY activation loop peptide]
binding result [7]: binds

B6: JAK1 pYpY activation loop peptide (peptide)
peptide: AIETDKE[pY][pY]TVKDDLD
notes: printed as AIETDKE[pY][pY]TVKDDLD; In the crystal with PTP1B D181A/Q262A the peptide is seen as the dephosphorylated product; also called JAK1 peptide; source: synthetic peptide
binding result [8]: binds

VLPQDKEY[pY]KVKEPGE (source: synthetic peptide) [JAK2 YpY activation loop peptide]
binding result [7]: binds
